Measured values reported in patent publication US20200317816A1 (Novartis, published 2020).

Assays:
[1] = biological target: anti-FXI/FXIa antibody NOV1401; assay: cell-based or functional assay
[2] = biological target: T1, anti-FXI/FXIa antibody NOV1401; assay: SPR (ProteOn XPR36), NOV1401 amine-coupled on the chip, Fab as analyte 0.125-4 nM, Langmuir 1:1 fit, 25 C; n=1
T1 construct: It was amine-coupled to the chip in SPR; In SET it was titrated in solution, and biotinylated NOV1401 served only as the capture reagent on the plate
T1 sequence (VH, as listed by the source, chain 1 of 2): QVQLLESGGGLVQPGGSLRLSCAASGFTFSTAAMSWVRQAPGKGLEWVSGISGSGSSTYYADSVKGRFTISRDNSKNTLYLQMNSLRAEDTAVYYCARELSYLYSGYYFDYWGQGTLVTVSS
T1 sequence (VL, as listed by the source, chain 2 of 2): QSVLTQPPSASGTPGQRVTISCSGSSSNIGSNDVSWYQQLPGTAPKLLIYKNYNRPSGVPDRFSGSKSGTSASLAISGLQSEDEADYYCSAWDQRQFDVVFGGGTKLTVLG
Method: SPR binding experiments were performed on a ProteOn XPR36 instrument (Bio-Rad Laboratories, Inc.) in PBS/T buffer (50 mM phosphate, 150 mM NaCl, pH 7.4, 0.005% v/v Tween-20) at 25° C. […] Unreacted groups were blocked by injecting 1 M ethanolamine.
Blank surfaces were used for background corrections. There was no need to regenerate surfaces since the ProteOn protein interaction array system allows to run up to six binding experiments on an identical surface in parallel.
Data processing and analysis including kon, koff, and KD determination were performed with the ProteOn Manager™ software version 3.1.0.6. Sensorgrams were fitted by applying a Langmuir 1:1 binding model (Rmax set at global) and dissociation constants were calculated from kon and koff.

[3] = biological target: T1, anti-FXI/FXIa antibody NOV1401; assay: solution equilibrium titration (SET), constant Fab with NOV1401 titrated in solution, free Fab captured on biotinylated NOV1401, 1:1 fit; average of n=3
Method: After washing the plate again three times, 30 μl of detection reagent (LumiGLO Peroxidase Chemiluminescent Substrate, KPL#54-61-01) was added to each well. Electrochemiluminescence (ECL) signals were generated and detected immediately with a luminescence imager (SpectraMax M5, Molecular Devices, LLC).
Average ECL-signals were calculated from duplicate measurements within each assay. Data were baseline adjusted by subtracting the lowest value from all data points and plotted against the corresponding antigen concentration.

[4] = biological target: T1, anti-FXI/FXIa antibody NOV1401; assay: cell-based or functional assay; remark: listed apart in the source

B1: IDT2 anti-NOV1401 Fab (Fab, V domains shown)
VH: QVQLVESGGGLVKPGGSLRLSCAASGFTFSSAAVHWVRQAPGKGLEWVGRIKSKADGGTTDYAAPVKGRFTISRDDSKNTLYLQMNSLKTEDTAVYYCARDSPSISSYSIPYFSGMDVWGQGTLVTVSS
VL: DIQMTQSPSSLSASVGDRVTITCRASQGIRAWLNWYQQKPGKAPKLLIYAASSLQSGVPSRFSGSGSGTDFTLTISSLQPEDFATYYCHQYITHPPTFGQGTKVEIKR
notes: Human Fab; The heavy chain entry is VH-CH1 (Fd); also called antidote
percentage reversal of NOV1401 aPTT prolongation, NOV1401/anti NOV1401 ratio 1/1 (n/n) [1]: 21%
percentage reversal of NOV1401 aPTT prolongation, NOV1401/anti NOV1401 ratio 1/3 (n/n) [1]: 42%
percentage reversal of NOV1401 aPTT prolongation, NOV1401/anti NOV1401 ratio 1/10 (n/n) [1]: 55%
Kd [2]: 0.23 nM
Kd [3]: 0.1 nM
percentage reversal of the NOV1401 effect on thrombin generation (TGA), NOV1401/anti NOV1401 ratio 1/1 (n/n) [4]: 55%
percentage reversal of the NOV1401 effect on thrombin generation (TGA), NOV1401/anti NOV1401 ratio 1/3 (n/n) [4]: 57%
percentage reversal of the NOV1401 effect on thrombin generation (TGA), NOV1401/anti NOV1401 ratio 1/10 (n/n) [4]: 61%
